Reference: the supplement of paper PMC9112550, “Optimization of the antimicrobial peptide Bac7 by deep mutational scanning” (BMC Biology, 2022)

Test system: Escherichia coli TOP10
Assay: shrunken log2 fold change of peptide-encoding DNA abundance (4.5 h post-induction vs induction); higher = less antimicrobial activity (less host growth inhibition)
Settings: time post-induction: 4.5 h; library: site-saturation at positions 5, 18, 19, 20
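Also: peptides expressed intracellularly from a pBAD plasmid library in pooled LB shake-flask culture, induced with 0.3% L-arabinose, DNA abundance read by NGS, three biological replicates, DESeq2 with apeglm shrinkage.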

| Sequence | shrunken log2 fold change |
| --- | --- |
| RRIRERPPRLPRPRPRPRQHPRP | -0.0319 |
| RRIRARPPRLPRPRPRPGPIPRP | 0.341 |
| RRIRPRPPRLPRPRPRPDHSPRP | -0.082 |
| RRIRVRPPRLPRPRPRPVHDPRP | -0.745 |
| RRIRKRPPRLPRPRPRPLSVPRP | -0.00128 |
| RRIRQRPPRLPRPRPRPIFWPRP | 0.142 |
| RRIRSRPPRLPRPRPRPCIHPRP | -1.37 |
| RRIRNRPPRLPRPRPRPHYEPRP | 0.0239 |
| RRIRYRPPRLPRPRPRPVILPRP | -0.0444 |
| RRIRQRPPRLPRPRPRPLDDPRP | -0.0837 |
| RRIRPRPPRLPRPRPRPKVNPRP | -0.148 |
| RRIRMRPPRLPRPRPRPEYQPRP | 0.0424 |
| RRIRTRPPRLPRPRPRPWMYPRP | -0.22 |
| RRIRYRPPRLPRPRPRPDCEPRP | 0.0295 |
| RRIRWRPPRLPRPRPRPWYWPRP | -0.209 |
| RRIRWRPPRLPRPRPRPGMCPRP | 0.437 |
| RRIRNRPPRLPRPRPRPPDYPRP | -0.077 |
| RRIRLRPPRLPRPRPRPYHEPRP | -1.6 |
| RRIRARPPRLPRPRPRPNLPPRP | 0.158 |
| RRIRQRPPRLPRPRPRPQCQPRP | 0.05 |
| RRIRLRPPRLPRPRPRPGVQPRP | 0.0642 |
| RRIRTRPPRLPRPRPRPSISPRP | -0.362 |
| RRIRDRPPRLPRPRPRPNTAPRP | -0.0636 |
| RRIRVRPPRLPRPRPRPWWEPRP | 0.161 |
| RRIRDRPPRLPRPRPRPYYEPRP | -0.226 |

| Sequence | shrunken log2 fold change |
| --- | --- |
| RRIRTRPPRLPRPRPRPCDTPRP | -0.116 |
| RRIRVRPPRLPRPRPRPDNHPRP | 0.0415 |
| RRIRPRPPRLPRPRPRPSDDPRP | -0.0663 |
| RRIRDRPPRLPRPRPRPHHRPRP | -0.277 |
| RRIRMRPPRLPRPRPRPHLYPRP | -0.0224 |
| RRIRRRPPRLPRPRPRPIHFPRP | -0.174 |
| RRIRKRPPRLPRPRPRPAAWPRP | 0.443 |
| RRIRNRPPRLPRPRPRPKKMPRP | -0.233 |
| RRIRHRPPRLPRPRPRPPPIPRP | 0.361 |
| RRIRNRPPRLPRPRPRPQFAPRP | -0.0842 |
| RRIRSRPPRLPRPRPRPDNVPRP | 4.24 |
| RRIRFRPPRLPRPRPRPDAYPRP | -0.147 |
| RRIRCRPPRLPRPRPRPNPSPRP | 0.0638 |
| RRIRFRPPRLPRPRPRPGGMPRP | -0.0381 |
| RRIRVRPPRLPRPRPRPQFMPRP | -0.232 |
| RRIRPRPPRLPRPRPRPVKQPRP | 0.169 |
| RRIRHRPPRLPRPRPRPWYYPRP | -1.47 |
| RRIRVRPPRLPRPRPRPSRVPRP | 0.0356 |
| RRIRVRPPRLPRPRPRPRHNPRP | -0.389 |
| RRIRQRPPRLPRPRPRPHVIPRP | -0.186 |
| RRIRMRPPRLPRPRPRPRKWPRP | 0.363 |
| RRIRSRPPRLPRPRPRPGDKPRP | 0.0832 |
| RRIRGRPPRLPRPRPRPIILPRP | 0.197 |
| RRIRHRPPRLPRPRPRPDYHPRP | -0.336 |
| RRIRVRPPRLPRPRPRPLMRPRP | 0.515 |

| Sequence | shrunken log2 fold change |
| --- | --- |
| RRIRGRPPRLPRPRPRPKQYPRP | 0.234 |
| RRIRIRPPRLPRPRPRPHTFPRP | -1.53 |
| RRIRRRPPRLPRPRPRPYPNPRP | -0.0882 |
| RRIRMRPPRLPRPRPRPTHKPRP | 0.275 |
| RRIRDRPPRLPRPRPRPRDLPRP | 0.139 |
| RRIRTRPPRLPRPRPRPQKIPRP | -0.123 |
| RRIRGRPPRLPRPRPRPQCTPRP | 0.085 |
| RRIRVRPPRLPRPRPRPTWEPRP | 0.00966 |
| RRIRTRPPRLPRPRPRPLGFPRP | 0.046 |
| RRIRKRPPRLPRPRPRPLTDPRP | -0.0168 |
| RRIRCRPPRLPRPRPRPIKLPRP | -0.63 |
| RRIRPRPPRLPRPRPRPMSEPRP | -0.327 |
| RRIRERPPRLPRPRPRPPPEPRP | 0.574 |
| RRIRHRPPRLPRPRPRPWCEPRP | 0.0456 |
| RRIRERPPRLPRPRPRPKHDPRP | -0.441 |
| RRIRVRPPRLPRPRPRPQHFPRP | 0.0726 |
| RRIRGRPPRLPRPRPRPQVIPRP | -0.0421 |
| RRIRWRPPRLPRPRPRPHHHPRP | -0.428 |
| RRIRRRPPRLPRPRPRPEMLPRP | 0.0638 |
| RRIRMRPPRLPRPRPRPQRWPRP | 0.637 |
| RRIRHRPPRLPRPRPRPRTVPRP | 0.126 |
| RRIRVRPPRLPRPRPRPEGMPRP | 0.326 |
| RRIRWRPPRLPRPRPRPFAYPRP | -0.304 |
| RRIRLRPPRLPRPRPRPFMFPRP | -0.306 |
| RRIRGRPPRLPRPRPRPIEAPRP | 0.377 |

| Sequence | shrunken log2 fold change |
| --- | --- |
| RRIRGRPPRLPRPRPRPVTKPRP | 0.661 |
| RRIRRRPPRLPRPRPRPFEVPRP | 0.0871 |
| RRIRNRPPRLPRPRPRPYTWPRP | -0.547 |
| RRIRQRPPRLPRPRPRPATRPRP | 0.616 |
| RRIRTRPPRLPRPRPRPRPDPRP | 1.44 |
| RRIRERPPRLPRPRPRPRDKPRP | -0.187 |
| RRIRNRPPRLPRPRPRPWLCPRP | 0.00252 |
| RRIRERPPRLPRPRPRPAKAPRP | 0.0877 |
| RRIRMRPPRLPRPRPRPYPWPRP | -0.274 |
| RRIRVRPPRLPRPRPRPGCGPRP | 0.679 |
| RRIRLRPPRLPRPRPRPQMCPRP | -0.0742 |
| RRIRGRPPRLPRPRPRPSIGPRP | 0.0763 |
| RRIRWRPPRLPRPRPRPPRIPRP | 0.245 |
| RRIRWRPPRLPRPRPRPIDHPRP | -0.166 |
| RRIRNRPPRLPRPRPRPVNYPRP | -0.179 |
| RRIRQRPPRLPRPRPRPKCSPRP | -0.0276 |
| RRIRFRPPRLPRPRPRPPMPPRP | 0.568 |
| RRIRPRPPRLPRPRPRPVTDPRP | -0.393 |
| RRIRTRPPRLPRPRPRPLYHPRP | -0.48 |
| RRIRGRPPRLPRPRPRPCVDPRP | 1.17 |
| RRIRWRPPRLPRPRPRPKNEPRP | 0.177 |
| RRIRPRPPRLPRPRPRPYLFPRP | -0.434 |
| RRIRKRPPRLPRPRPRPAKGPRP | 0.136 |
| RRIRGRPPRLPRPRPRPMAQPRP | 1.07 |
| RRIRQRPPRLPRPRPRPLCCPRP | -0.382 |

| Sequence | shrunken log2 fold change |
| --- | --- |
| RRIRKRPPRLPRPRPRPCTHPRP | -0.14 |
| RRIRPRPPRLPRPRPRPWMYPRP | -0.691 |
| RRIRIRPPRLPRPRPRPVVHPRP | -0.000671 |
| RRIRVRPPRLPRPRPRPGQSPRP | 0.0938 |
| RRIRARPPRLPRPRPRPADHPRP | 0.0196 |
| RRIRSRPPRLPRPRPRPAIVPRP | 0.385 |
| RRIRERPPRLPRPRPRPKWLPRP | 0.226 |
| RRIRQRPPRLPRPRPRPINRPRP | -0.341 |
| RRIRRRPPRLPRPRPRPQVSPRP | 0.0704 |
| RRIRIRPPRLPRPRPRPCWMPRP | -0.222 |
| RRIRPRPPRLPRPRPRPHGYPRP | -0.0483 |
| RRIRYRPPRLPRPRPRPWARPRP | -0.116 |
| RRIRRRPPRLPRPRPRPEHIPRP | -0.13 |
| RRIRIRPPRLPRPRPRPHRAPRP | 0.0775 |
| RRIRARPPRLPRPRPRPKRHPRP | 0.511 |
| RRIRFRPPRLPRPRPRPILQPRP | -0.0746 |
| RRIRMRPPRLPRPRPRPVFKPRP | -0.111 |
| RRIRPRPPRLPRPRPRPRKAPRP | 0.0787 |
| RRIRYRPPRLPRPRPRPCMWPRP | 0.0465 |
| RRIRFRPPRLPRPRPRPKSAPRP | -0.00592 |
| RRIRFRPPRLPRPRPRPQHRPRP | -0.0907 |
| RRIRARPPRLPRPRPRPDPDPRP | 1.3 |
| RRIRHRPPRLPRPRPRPGMFPRP | -0.178 |
| RRIRSRPPRLPRPRPRPCMWPRP | 0.0267 |
| RRIRKRPPRLPRPRPRPDIVPRP | 1.54 |

| Sequence | shrunken log2 fold change |
| --- | --- |
| RRIRNRPPRLPRPRPRPRGEPRP | -0.029 |
| RRIRVRPPRLPRPRPRPETNPRP | 0.0778 |
| RRIRRRPPRLPRPRPRPDTLPRP | 0.06 |
| RRIRYRPPRLPRPRPRPDMMPRP | -0.417 |
| RRIRRRPPRLPRPRPRPGWWPRP | 0.478 |
| RRIRDRPPRLPRPRPRPNPMPRP | -0.0935 |
| RRIRPRPPRLPRPRPRPKSRPRP | 0.154 |
| RRIRIRPPRLPRPRPRPPHLPRP | -0.14 |
| RRIRTRPPRLPRPRPRPWIHPRP | -0.636 |
| RRIRDRPPRLPRPRPRPDGGPRP | -0.00182 |
| RRIRARPPRLPRPRPRPHRYPRP | -0.147 |
| RRIRNRPPRLPRPRPRPVTYPRP | -0.168 |
| RRIRGRPPRLPRPRPRPYWDPRP | -0.26 |
| RRIRLRPPRLPRPRPRPGALPRP | 0.0546 |
| RRIRCRPPRLPRPRPRPQKSPRP | -0.554 |
| RRIRGRPPRLPRPRPRPHCMPRP | -0.207 |
| RRIRDRPPRLPRPRPRPGQSPRP | 0.116 |
| RRIRMRPPRLPRPRPRPFSFPRP | -0.0784 |
| RRIRCRPPRLPRPRPRPRAKPRP | 0.26 |
| RRIRWRPPRLPRPRPRPGAGPRP | 0.796 |
| RRIRFRPPRLPRPRPRPYWEPRP | -0.391 |
| RRIRQRPPRLPRPRPRPICYPRP | 0.0933 |
| RRIRERPPRLPRPRPRPWNTPRP | -0.00122 |
| RRIRTRPPRLPRPRPRPFIAPRP | -0.589 |
| RRIRFRPPRLPRPRPRPYMDPRP | -0.0184 |
